Assay results reported in US20240294926.

Test system: PARP (endogenous, MDA-MB-231 cells) (Homo sapiens)
Assay: cell_activity
Conditions: cholesterol-conjugated, HEG loop, 5 uM, 48 h

Row | Sequence | activity (% PARylated cells) (FANA (2'-deoxy-2'-fluoroarabino) nucleotides and PS linkages (positions only in images), PARP activation) | activity (% PARylated cells) (3 PS linkages on each strand, PARP activation weaker than OX413)
1 | CCCAGCAAACAAGCCT (double strand) [OX413] | > 40 | –
2 | CCCAGCAAACAAGCCT (double strand) [OX401] | – | 20
